system: Escherichia coli TOP10; experiment: shrunken log2 fold change of peptide-encoding DNA abundance (4.5 h post-induction vs induction); higher = less antimicrobial activity (less host growth inhibition); conditions: time post-induction: 4.5 h; library: site-saturation at positions 5, 18, 19, 20
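Further: peptides expressed intracellularly from a pBAD plasmid library in pooled LB shake-flask culture, induced with 0.3% L-arabinose, DNA abundance read by NGS, three biological replicates, DESeq2 with apeglm shrinkage.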

Sequence	shrunken log2 fold change
RRIRWRPPRLPRPRPRPNGAPRP	0.161
RRIRHRPPRLPRPRPRPHHPPRP	0.0301
RRIRFRPPRLPRPRPRPGMQPRP	0.237
RRIRTRPPRLPRPRPRPGESPRP	-0.012
RRIRARPPRLPRPRPRPLISPRP	-0.0384
RRIRWRPPRLPRPRPRPKENPRP	0.373
RRIRQRPPRLPRPRPRPNHGPRP	-0.00507
RRIRWRPPRLPRPRPRPEQNPRP	0.117
RRIRHRPPRLPRPRPRPSCSPRP	-0.876
RRIRMRPPRLPRPRPRPMPYPRP	0.018
RRIRRRPPRLPRPRPRPQDCPRP	-0.151
RRIRQRPPRLPRPRPRPRRKPRP	0.192
RRIRERPPRLPRPRPRPVSYPRP	0.0843
RRIRSRPPRLPRPRPRPWGAPRP	0.0522
RRIRFRPPRLPRPRPRPSATPRP	0.0473
RRIRGRPPRLPRPRPRPCEWPRP	-0.01
RRIRTRPPRLPRPRPRPLSGPRP	-0.0581
RRIRDRPPRLPRPRPRPPWFPRP	0.336
RRIRMRPPRLPRPRPRPLRHPRP	1.98
RRIRGRPPRLPRPRPRPDGIPRP	-0.0219

Sequence	shrunken log2 fold change
RRIRDRPPRLPRPRPRPEFKPRP	-0.0319
RRIRGRPPRLPRPRPRPPDFPRP	0.46
RRIRYRPPRLPRPRPRPAACPRP	0.115
RRIRYRPPRLPRPRPRPSHIPRP	-1.45
RRIRYRPPRLPRPRPRPVHVPRP	-1.35
RRIRIRPPRLPRPRPRPKPDPRP	0.528
RRIRYRPPRLPRPRPRPKPMPRP	0.0517
RRIRGRPPRLPRPRPRPHFFPRP	0.328
RRIRLRPPRLPRPRPRPIWEPRP	0.0805
RRIRNRPPRLPRPRPRPGHCPRP	-0.062
RRIRARPPRLPRPRPRPVMIPRP	0.0471
RRIRMRPPRLPRPRPRPKKRPRP	2.01
RRIRKRPPRLPRPRPRPGQSPRP	0.306
RRIRVRPPRLPRPRPRPQQVPRP	-0.0278
RRIRLRPPRLPRPRPRPAWPPRP	0.42
RRIRTRPPRLPRPRPRPYGHPRP	-0.587
RRIRARPPRLPRPRPRPETKPRP	1.27
RRIRMRPPRLPRPRPRPLHDPRP	0.487
RRIRMRPPRLPRPRPRPNSRPRP	0.169
RRIRLRPPRLPRPRPRPNINPRP	-0.686

Sequence	shrunken log2 fold change
RRIRKRPPRLPRPRPRPIPEPRP	0.163
RRIRIRPPRLPRPRPRPTDEPRP	0.125
RRIRTRPPRLPRPRPRPLACPRP	0.0365
RRIRVRPPRLPRPRPRPPVNPRP	0.159
RRIRGRPPRLPRPRPRPPMTPRP	0.895
RRIRGRPPRLPRPRPRPRLNPRP	0.57
RRIRVRPPRLPRPRPRPQMGPRP	0.00696
RRIRCRPPRLPRPRPRPQNTPRP	-0.691
RRIRERPPRLPRPRPRPFCWPRP	0.0996
RRIRERPPRLPRPRPRPNQHPRP	-0.228
RRIRMRPPRLPRPRPRPSEQPRP	-0.0153
RRIRVRPPRLPRPRPRPMQVPRP	0.121
RRIRPRPPRLPRPRPRPMMIPRP	0.0824
RRIRTRPPRLPRPRPRPLVTPRP	-0.227
RRIRPRPPRLPRPRPRPCNVPRP	-0.314
RRIRNRPPRLPRPRPRPCMDPRP	-0.129
RRIRCRPPRLPRPRPRPVVKPRP	0.0236
RRIRGRPPRLPRPRPRPMMCPRP	0.0367
RRIRVRPPRLPRPRPRPAYKPRP	-0.181
RRIRQRPPRLPRPRPRPDPQPRP	-0.159
